Assay results published in patent US20020111475A1 (IMMUNEX, published 2002).

Tests used:
[1] = molecular target: T1, human flt3 on BAF/hflt3 cells (BAF-BO3 cells transfected with human flt3 cDNA) (human, UniProt P36888 27-993); test: cell-based or functional assay
T1 sequence (looked up): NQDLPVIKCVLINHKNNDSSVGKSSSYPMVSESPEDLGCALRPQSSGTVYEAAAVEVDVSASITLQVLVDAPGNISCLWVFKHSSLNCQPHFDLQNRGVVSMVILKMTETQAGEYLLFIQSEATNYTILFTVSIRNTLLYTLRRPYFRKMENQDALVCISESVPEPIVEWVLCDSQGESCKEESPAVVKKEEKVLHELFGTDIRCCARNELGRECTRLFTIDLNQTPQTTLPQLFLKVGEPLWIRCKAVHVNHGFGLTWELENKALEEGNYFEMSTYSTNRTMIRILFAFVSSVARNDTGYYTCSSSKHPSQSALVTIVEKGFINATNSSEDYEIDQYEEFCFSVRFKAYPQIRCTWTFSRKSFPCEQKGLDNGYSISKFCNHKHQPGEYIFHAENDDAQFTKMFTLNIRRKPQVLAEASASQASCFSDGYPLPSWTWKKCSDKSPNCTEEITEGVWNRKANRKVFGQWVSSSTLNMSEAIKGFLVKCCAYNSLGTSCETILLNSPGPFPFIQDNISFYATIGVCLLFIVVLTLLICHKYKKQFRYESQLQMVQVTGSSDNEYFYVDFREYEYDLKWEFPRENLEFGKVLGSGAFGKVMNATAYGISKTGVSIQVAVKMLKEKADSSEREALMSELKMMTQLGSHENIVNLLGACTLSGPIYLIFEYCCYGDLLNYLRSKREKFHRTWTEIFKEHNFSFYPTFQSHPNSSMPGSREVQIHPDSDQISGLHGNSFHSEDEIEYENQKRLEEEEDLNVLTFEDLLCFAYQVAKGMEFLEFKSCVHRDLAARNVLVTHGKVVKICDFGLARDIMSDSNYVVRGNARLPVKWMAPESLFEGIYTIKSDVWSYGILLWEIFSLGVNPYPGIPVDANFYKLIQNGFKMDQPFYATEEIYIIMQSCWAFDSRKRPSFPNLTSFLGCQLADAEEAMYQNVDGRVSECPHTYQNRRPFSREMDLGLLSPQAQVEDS

[2] = molecular target: T1, human flt3 on BAF/hflt3 cells (BAF-BO3 …); test: inhibition of 125I-flt3-L binding to BAF/hflt3 cells, purified protein
Description: Binding assays were performed using a phthalate oil separation method as described previously for murine ¹²⁵I-GM-CSF (Park et al., J. Biol. Chem. 261:4177-4183 (1986)). Briefly, BAF-BO3 cells transfected with human flt3 cDNA (0.5-1×10⁶) were incubated with serial dilutions of ¹²⁵I-flt3-L in binding medium (RPMI 1640, 2.5% bovine serum albumin, 0.2% NaN3, 20 mM Hepes, pH 7.2) in 96 well microtiter plates maintained on a mini-orbital shaker (Bellco) at 37° C. for 90 minutes. Inhibition binding assays were carried out by holding the radiolabeled flt3-L concentration constant at 0.3 nM, while the concentration of unlabeled competitor proteins ranged from 150 nM to 0.001 nM. The ratio of Kdi of mutant to wild type flt3-L, determined in at least duplicate, in a given assay was averaged over at least three independent assays and the standard error of the mean (SEM) reported. […] For this assay, cells expressing human flt3 (BAF/hflt3 cells) were constructed from BAF/B03 cells, using a procedure previously described for producing BAF/B03 cells expressing the murine flt3 (Lyman et al., Cell 75:1157-1167 (1993)). Expression of human flt3 by BAF/hflt3 cells was confirmed by examining the capacity of the cells to proliferate in response to soluble flt3-L, and by flow cytometric analysis using biotinylated flt3-L.
^aThe specific activity of purified mutant or wild type protein was determined by taking the ratio of proliferation activity in BAF/hflt3 cells (units/ml) to concentration of flt3-L protein as determined by amino acid composition (ng/ml). The ratio of specific activity of mutant to wild type flt3-L is averaged over three independent assays, and the standard error of the mean (SEM) is reported. ^bThe Kdifor wild type protein is 61 ± 19 pM (n = 2). The ratio of Kₐᵢ of mutant to wild type flt3-L is averaged over two independent assays and the standard deviation is reported.

[3] = molecular target: T1, human flt3 on BAF/hflt3 cells (BAF-BO3 …); test: Kdi: inhibition of 125I-flt3-L binding to BAF/hflt3 cells, the assays of Table 3
[4] = molecular target: T1, human flt3 on BAF/hflt3 cells (BAF-BO3 …); test: Kdi: inhibition by unlabelled flt3-L of 0.3 nM 125I-flt3-L binding to BAF-BO3 cells transfected with human flt3 (n=7)
Description: (§1) Binding assays were performed using a phthalate oil separation method as described previously for murine ¹²⁵I-GM-CSF (Park et al., J. Biol. Chem. 261:4177-4183 (1986)). Briefly, BAF-BO3 cells transfected with human flt3 cDNA (0.5-1×10⁶) were incubated with serial dilutions of ¹²⁵I-flt3-L in binding medium (RPMI 1640, 2.5% bovine serum albumin, 0.2% NaN3, 20 mM Hepes, pH 7.2) in 96 well microtiter plates maintained on a mini-orbital shaker (Bellco) at 37° C. for 90 minutes. Inhibition binding assays were carried out by holding the radiolabeled flt3-L concentration constant at 0.3 nM, while the concentration of unlabeled competitor proteins ranged from 150 nM to 0.001 nM. The ratio of Kdi of mutant to wild type flt3-L, determined in at least duplicate, in a given assay was averaged over at least three independent assays and the standard error of the mean (SEM) reported. […]
(§2) The ordinate is the Log¹⁰ of the value relative to wild type flt3-L, and the abscissa is the flt3-L mutant designation. […] The ratio of Kₐᵢ mutant to wild type flt3-L, determined in at least duplicate, in a given assay is averaged over at least three independent assays and the standard error of the mean (SEM) is reported.

[5] = molecular target: T1, human flt3 on BAF/hflt3 cells (BAF-BO3 …); test: direct binding of serial dilutions of 125I-flt3-L to BAF-BO3 cells transfected with human flt3, 37 C, phthalate oil separation (n=7)
Description: as §1, §2

[6] = molecular target: T1, human flt3 on BAF/hflt3 cells (BAF-BO3 …); test: Kdi: inhibition of binding of radiolabelled yeast-derived flt3-L to BAF-BO3 cells transfected with human flt3
Description: as §1
Specific activity of purified mutant or wild type protein was calculated as the ratio of proliferation activity in BAF/hflt3 cells (units/ml) to concentration of flt3-L protein as determined by amino acid composition (ng/ml). The ratio of specific activity of mutant to wild type flt3-L, determined in duplicate, in a given assay was averaged over at least three independent assays and the standard error of the mean (SEM) is reported. […]

[7] = molecular target: T2, flt3 on murine WWF7 cells; test: cell-based or functional assay
T2 sequence (Q00342 whole entry, looked up): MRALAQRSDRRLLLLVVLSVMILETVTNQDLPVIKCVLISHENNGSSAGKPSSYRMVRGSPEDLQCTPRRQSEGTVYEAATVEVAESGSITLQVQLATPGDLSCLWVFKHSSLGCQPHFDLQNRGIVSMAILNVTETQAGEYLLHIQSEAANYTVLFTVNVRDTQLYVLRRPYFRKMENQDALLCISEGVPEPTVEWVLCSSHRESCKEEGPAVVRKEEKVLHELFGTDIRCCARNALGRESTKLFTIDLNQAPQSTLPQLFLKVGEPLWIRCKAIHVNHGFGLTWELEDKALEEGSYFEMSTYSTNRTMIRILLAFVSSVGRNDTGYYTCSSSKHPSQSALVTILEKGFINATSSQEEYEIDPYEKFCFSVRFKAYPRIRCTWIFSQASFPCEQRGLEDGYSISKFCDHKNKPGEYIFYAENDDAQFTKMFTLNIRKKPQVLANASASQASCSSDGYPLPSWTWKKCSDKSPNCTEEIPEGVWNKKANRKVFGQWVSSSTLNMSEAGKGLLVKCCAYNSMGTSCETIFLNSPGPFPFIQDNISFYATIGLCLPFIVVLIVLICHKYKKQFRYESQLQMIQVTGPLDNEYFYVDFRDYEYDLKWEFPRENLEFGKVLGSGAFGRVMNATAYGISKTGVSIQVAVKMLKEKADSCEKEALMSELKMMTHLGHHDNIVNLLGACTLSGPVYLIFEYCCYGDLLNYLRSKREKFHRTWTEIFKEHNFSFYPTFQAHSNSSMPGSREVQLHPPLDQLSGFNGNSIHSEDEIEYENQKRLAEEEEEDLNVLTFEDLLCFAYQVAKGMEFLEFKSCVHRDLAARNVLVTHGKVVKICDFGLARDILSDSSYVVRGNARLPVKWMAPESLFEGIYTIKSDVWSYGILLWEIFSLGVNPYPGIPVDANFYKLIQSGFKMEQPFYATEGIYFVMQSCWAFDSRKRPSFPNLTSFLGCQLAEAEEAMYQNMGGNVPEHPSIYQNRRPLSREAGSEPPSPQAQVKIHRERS

B1: wild type flt3-L (yeast-derived recombinant human flt3 Ligand) (ligand)
chain: LSGTQDCSFQHSPISSDFAVKIRELSDYLLQDYPVTVASNLQDEELCGGLWRLVLAQRWMERLKTVAGSKMQGLLERVNTEIHFVTKCAFQPPPSCLRFVQTNISRLLQETSEQLVALKPWITRQNFARCLELQCQPDSSTLPPPWSPRPLEATAP
notes: Secreted from yeast (alpha-factor leader, final plasmid PIXY797); Leu-Ser-Gly stands before Thr1 of the mature protein (80% of chains; 20% begin at Ser); Noncovalent dimer (dimer peak collected); also called WT; 125I-flt3-L (radiolabelled form)
**Q.** For B1, which “Sp.Ac. MUT / Sp.Ac. Wt (BAF/hflt3 cell proliferation units/ml per ng/ml purified protein)” value [1] is on record?
**A.** The value was 1 ratio to wild type.

**Q.** What about the “Kai MUT / Kai Wt” value [2] of the same binder?
**A.** The value was 1 ratio to wild type.

**Q.** What about the Ki [3] of the same binder?
**A.** The Ki was 0.061 nM.

**Q.** And the Ki [4]?
**A.** Its Ki is 0.09 nM.

**Q.** And the Kd [5]?
**A.** The Kd was 0.13 nM.

B2: flt3-L mutant H8Y (ligand)
chain: LSGTQDCSFQYSPISSDFAVKIRELSDYLLQDYPVTVASNLQDEELCGGLWRLVLAQRWMERLKTVAGSKMQGLLERVNTEIHFVTKCAFQPPPSCLRFVQTNISRLLQETSEQLVALKPWITRQNFARCLELQCQPDSSTLPPPWSPRPLEATAP
notes: yeast supernatant and purified protein (dimer)
**Q.** What does the source list for B2?
**A.** Sp.Ac. MUT / Sp.Ac. Wt (BAF/hflt3 cell proliferation units/ml per ng/ml purified protein) [1]: 2.1 ratio to wild type; Kai MUT / Kai Wt [2]: 2.8 ratio to wild type

B3: flt3-L multiple mutant K84E/Q122R (ligand)
chain: LSGTQDCSFQHSPISSDFAVKIRELSDYLLQDYPVTVASNLQDEELCGGLWRLVLAQRWMERLKTVAGSKMQGLLERVNTEIHFVTECAFQPPPSCLRFVQTNISRLLQETSEQLVALKPWITRRNFARCLELQCQPDSSTLPPPWSPRPLEATAP
notes: also called double mutant K84E/Q122R
**Q.** How did the “Sp.Ac. MUT / Sp.Ac. Wt (BAF/hflt3 cell proliferation units/ml per ng/ml purified protein)” value [1] turn out when B3 was run?
**A.** Its value is 2.9 ratio to wild type.

**Q.** And the “Kai MUT / Kai Wt” value [2]?
**A.** The value was 3.4 ratio to wild type.

B4: flt3-L quadruply substituted mutant L-3H/H8Y/K84E/Q122R (ligand)
chain: HSGTQDCSFQYSPISSDFAVKIRELSDYLLQDYPVTVASNLQDEELCGGLWRLVLAQRWMERLKTVAGSKMQGLLERVNTEIHFVTECAFQPPPSCLRFVQTNISRLLQETSEQLVALKPWITRRNFARCLELQCQPDSSTLPPPWSPRPLEATAP
notes: Constructed by PCR mutagenesis from K84E/Q122R, expressed in yeast and purified
**Q.** B4 was tested. Which “Sp.Ac. MUT / Sp.Ac. Wt (BAF/hflt3 cell proliferation units/ml per ng/ml purified protein)” value [1] did it give?
**A.** Its value is 3 ratio to wild type.

**Q.** And the “Kai MUT / Kai Wt” value [2]?
**A.** Its value is 8.6 ratio to wild type.

B5: recombinant CHO-derived human flt3-L, which has native human sequence (ligand)
chain: TQDCSFQHSPISSDFAVKIRELSDYLLQDYPVTVASNLQDEELCGGLWRLVLAQRWMERLKTVAGSKMQGLLERVNTEIHFVTKCAFQPPPSCLRFVQTNISRLLQETSEQLVALKPWITRQNFSRCLELQCQPDSSTLPPPWSPRPLEATAPTAPQP
**Q.** Which Ki [6] does the source give for B5 here?
**A.** The Ki was 0.08 nM.

B6: flt3-L mutant S13F (ligand)
chain: LSGTQDCSFQHSPISFDFAVKIRELSDYLLQDYPVTVASNLQDEELCGGLWRLVLAQRWMERLKTVAGSKMQGLLERVNTEIHFVTKCAFQPPPSCLRFVQTNISRLLQETSEQLVALKPWITRQNFARCLELQCQPDSSTLPPPWSPRPLEATAPTAPQPPLLLLLLLPVGLLLLAAAWCLHWQRTRRRTPRPGEQVPPVPSPQDLLLVEH
**Q.** Which “Sp.Ac. MUT / Sp.Ac. WT (WWF7 cell proliferation units/ml per flt3-L ng/ml by ELISA, yeast supernatant)” value [7] does the source give for B6 here?
**A.** The value was 0 ratio to wild type.
